The target in test [1] is T1, IFNγR1, wild type, recombinant soluble receptor captured on the SPR chip (UniProt P15260 18-245).
T1 sequence (looked up): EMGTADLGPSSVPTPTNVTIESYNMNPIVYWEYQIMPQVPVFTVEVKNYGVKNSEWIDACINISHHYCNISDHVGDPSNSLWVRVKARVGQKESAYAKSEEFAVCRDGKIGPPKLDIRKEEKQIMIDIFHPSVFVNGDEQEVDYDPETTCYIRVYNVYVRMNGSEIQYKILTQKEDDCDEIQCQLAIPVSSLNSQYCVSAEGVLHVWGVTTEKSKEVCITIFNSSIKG
Description: SPR. Background: Surface plasmon resonance follows binding to a sensor surface in real time, without labels.

For test [2], the target named is 2:2 IFNγ–IFNγR1 intermediate complex (wild type), formed on the SPR chip (UniProt P15260). As to the kind of experiment: SPR.

B1: IFNγ(K74A/E75Y/N83R) triple mutant (ligand)
chain: QDPYVKEAENLKKYFNAGHSDVADNGTLFLGILKNWKEESDRKIMQSQIVSFYFKLFKNFKDDQSIQKSVETIAYDMNVKFFRSNKKKRDDFEKLTNYSVTDLNVQRKAIHELIQVMAELSPAAKTGKRKRSQ
As to B1, the binding result in test [1] is “binds”.

B2: IFNγR2, wild type, recombinant soluble receptor (receptor)
chain: SQLPAPQHPKIRLYNAEQVLSWEPVALSNSTRPVVYQVQFKYTDSKWFTADIMSIGVNCTQITATECDFTAASPSAGFPMDFNVTLRLRAELGALHSAWVTMPWFQHYRNVTVGPPENIEVTPGEGSLIIRFSSPFDIADTSTAFFCYYVHYWEKGGIQQVKGPFRSNSISLDNLKPSRVYCLQVQAQLLWNKSNIFRVGHLSNISCYETMADASTELQQ
In test [2], B2 returned a Kd of 5 µM.

What is called Kd is a measure of binding affinity in units of concentration.

These data come from article PMC6561087 (Nature, 2019).
